From patent publication US6444644B1, “Anticoagulant peptide fragments derived from apolipoprotein B-100” (University College London, priority 1996, dated 2002)

Columns and labels:
thromboplastin [1] = molecular target: T1, thromboplastin (Homo sapiens, UniProt P13726); assay: Effect of thromboplastin peptide (58-66) on thromboplastin activity (one-stage prothrombin time assay); format: biochemical; details: for effect on the procoagulant activity of thromboplastin (in words) / Procoagulant Activity of thromboplastin: peptide 1 μM, thromboplastin 100 nM; for Procoagulant Activity of thromboplastin: 5 min, 37° C., distilled water 6.70 U/ml
T1 construct: purchased Gamidor Ltd. (Oxfordshire, U.K.)
T1 sequence (P13726 33-295): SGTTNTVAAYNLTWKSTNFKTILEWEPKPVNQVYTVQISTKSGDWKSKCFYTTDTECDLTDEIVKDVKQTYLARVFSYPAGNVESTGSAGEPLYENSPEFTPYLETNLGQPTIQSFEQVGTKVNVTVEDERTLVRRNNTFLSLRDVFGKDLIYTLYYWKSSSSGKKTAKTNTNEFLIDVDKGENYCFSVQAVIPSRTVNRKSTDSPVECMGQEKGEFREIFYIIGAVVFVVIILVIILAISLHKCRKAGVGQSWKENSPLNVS
Experimental: The control peptide ([…]) was reconstituted to 1 mM in distilled water. The control peptide was similar but not identical to the thromboplastin (58-66), in size, charge and amino acid composition but with a different sequence. In order to assess the effect of the thromboplastin peptide (58-66) on the activity of thromboplastin, samples of recombinant thromboplastin (100 nM) were incubated for 5 min, with the isolated thromboplastin-peptide ([…]), control peptide (1 μM) or distilled water at 37° C. prior to assaying using the one-stage prothrombin time assay. The activity was calculated from a thromboplastin standard curve.
Three aliquots of thromboplastin (100 nM) were incubated for 5 min, with the isolated thromboplastin peptide (1 μM), control peptide (1 μM) or distilled water at 37° C. prior to assaying using the one-stage prothrombin time assay. The activity was calculated from a thromboplastin standard curve. The data were obtained from 3 separate experiments.

[2] = molecular target: T2, interaction of thromboplastin with apo B-100 (Homo sapiens, UniProt P13726); assay: Influence of peptide 58-66 on the inhibition of thromboplastin by apo B-100; format: biochemical; details: peptide 1 μM, thromboplastin 100 nM, apo B-100 250 nM, 37° C., up to 180 min
T2 construct: purchased Gamidor Ltd. (Oxfordshire, U.K.) for thromboplastin; apoB-100 isolated and reconstituted in house
T2 sequence (P13726 33-295): as above
Experimental: (250 nM final concentration) in the presence and absence of the isolated thromboplastin peptide (1 μM) or control peptide (1 μM), at 37° C. Aliquots (100 μl) were removed at the start and at various intervals up to 180 min and assayed by means of the one-stage prothrombin time assay. The residual activity of thromboplastin measured in the samples was compared to the initial activity, at time zero, and percentage inhibition calculated.
Samples of thromboplastin (100 nM) were incubated with reconstituted apo B-100 (250 nM final concentration) in the presence (▪) and absence (▾) of the isolated thromboplastin peptide (1 μM), at 37° C. Aliquots ([…]) were removed at the start (time zero) and at various intervals up to 180 min and assayed by means of the one-stage prothrombin time assay. The data presented are representative of 5 independent experiments.

thromboplastin [3] = molecular target: T1, thromboplastin; assay: Time-course inhibition of thromboplastin procoagulant activity (one-stage prothrombin time and two-stage amidolytic assay); format: biochemical; details: 500 nM, 37° C.; for effect on thromboplastin (in words): up to 120 min
Experimental: The one stage prothrombin time assay was carried out by the addition of 100 μl of the sample to 100 μl of 25 mM CaCl2 solution and incubation prior to addition of 100 μl of control plasma. The clotting time was measured on the coagulometer. The two-stage amidolytic assay was carried according to published procedures. In all cases the thromboplastin activity was calculated from a standard curve prepared previously and the percentage inhibition was calculated as 100×[…].
The apolipoprotein B-100 control peptide (fragment 3358-3372) containing the sequence TRLTRKRGLKLATAL was reconstituted in distilled water to 1 mM. The freeze-dried samples were reconstituted in distilled water to a concentration of 1 mM. Two 200 μl samples of thromboplastin (10 U/ml) were incubated with 500 nM KRAD-14 or apolipoprotein B-100 control peptide at 37° C. for 45 min. Another set of 200 μl samples of thromboplastin (10 U/ml) were incubated with either 500 nM KRAD-98 or the chloramphenicol acetyltransferase control protein. […] Following the incubation the thromboplastin activity in all the samples was measured by means of the one-stage prothrombin time assay and the two-stage amidolytic assay and the percentage inhibition calculated against the control containing distilled water.
The above experiments were repeated using 1 ml samples containing recombinant thromboplastin (10 U/ml) mixed with either 500 nM KRAD-14, 500 nM KRAD-98 or 500 nM apolipoprotein B-100, reconstituted as described before. The concentrations used are equivalent to that of apolipoprotein B-100 in normal plasma. 100 μl of the each sample was removed immediately and assayed for thromboplastin activity, by means of the one-stage prothrombin time assay. The rest of the samples were incubated at 37° C. and further 100 μl samples were removed at intervals up to 120 min and measured as before. The percentage inhibition was calculated against a control sample of thromboplastin.
Three 1 ml samples containing recombinant thromboplastin (10 U/ml) were mixed with 500 nM KRAD-14 (solid square), 500 nM KRAD-98 (open square) or 500 nM apolipoprotein […] (triangle), reconstituted as described before. The concentrations used are equivalent to that of apolipoprotein B-100 in normal plasma. 100 μl of the each sample was removed immediately and assayed for thromboplastin activity, by means of the one-stage prothrombin time assay. The rest of the samples were incubated at 37° C. and further 100 μl samples were removed at intervals up to 120 min and measured as before. The thromboplastin activity was calculated from a standard curve prepared previously and the percentage inhibition was calculated as 100×[…]. The curves are typical of data from four sets of experiments.

[4] = molecular target: T3, thromboplastin, reconstituted in phosphatidylcholine (Homo sapiens, UniProt P13726); assay: Inhibition of delipidated thromboplastin reconstituted in phosphatidylcholine; format: biochemical; details: 500 nM sample, 37° C., 30 min; for Procoagulant Activity: distilled water control 4.70 U/ml
T3 construct: purchased Gamidor Ltd. (Oxfordshire, U.K.)
T3 sequence (P13726 33-295): as above
Experimental: In other experiments, recombinant thromboplastin (1 mg/ml) was delipidated with chloroform/methanol as described previously, to remove phosphatidylserine and other lipids and reconstituted with phosphatidylcholine (1 mg/ml) to differentiate between the effects of the prepared samples on the protein moiety of thromboplastin and any effects on the thromboplastin-associated phosphatidylserine. […] The percentage inhibition was calculated against the control sample.
Recombinant thromboplastin was delipidated to remove phosphatidylserine and other lipids and reconstituted at 1 mg/ml with phosphatidylcholine (1 mg/ml). […] The % Inhibition was calculated against the control. The data were obtained from 3 separate experiments.

[5] = system: T4, KRAD-14 peptide (recombinant, released from the biotinylated fusion protein with chymotrypsin)
T4 sequence: KAQSKKNKHRHSTT

[6] = molecular target: recombinant thromboplastin (UniProt P13726 33-295, limits assumed); assay: cell-based or functional assay
thromboplastin [7] = molecular target: T1, thromboplastin; assay: Inhibition of thromboplastin in the presence of plasma; format: biochemical
Experimental: […] The samples were then assayed by addition of 100 μl of […] CaCl2 solution and measurement on the coagulometer. The percentage inhibition in each case calculated against a similarly treated sample, containing thromboplastin only.

For “DLTDEIVKD [thromboplastin-derived peptide (58-66), recombinant peptide of thromboplastin residues 58-66]”, the “effect on the procoagulant activity of thromboplastin (in words)” value (thromboplastin [1]) was “enhanced the procoagulant activity of thromboplastin”, the “endogenous procoagulant activity of the peptide” value (thromboplastin [1]; peptide alone) was “no endogenous procoagulant activity” and the “Procoagulant Activity of thromboplastin” value (thromboplastin [1]) was “Peptide 56-66 (7.45 U/ml)”. The “effect on the rate of inhibition of thromboplastin activity by reconstituted apo B-100” value [2] was “accelerated the rate of inhibition of thromboplastin activity”.

“Reconstituted apolipoprotein B-100: apolipoprotein B-100 isolated from LDL by delipidation and gel filtration, reconstituted in phosphatidylcholine” was tested, and the “inhibition of the procoagulant activity of thromboplastin” value (thromboplastin [3]; 90 min incubation) was > 95%, the “% Inhibition” value ([4]; against distilled water control) was 62% and the “Procoagulant Activity” value [4] was “(1.79 U/ml)”.

In the case of VQGEESDNK [Control peptide], the “effect on the procoagulant activity of thromboplastin (in words)” value (thromboplastin [1]) is reported as “did not have any significant effect” and the “Procoagulant Activity of thromboplastin” value (thromboplastin [1]) is reported as “Control peptide (6.75 U/ml)”.

In the case of thrombin, the “clotting ability and amidolytic proteolytic activity of thrombin (100 nM) after incubation with 500 nM peptide” value [5] is reported as “The KRAD-14 peptide (500 nM) did not affect either the clotting ability or the amidolytic proteolytic activity of thrombin (100 nM)”.

With “reconstituted apolipoprotein B-100 (from UniProt P04114 28-4563)” the % Inhibition of thromboplastin delipidated and reconstituted in phosphatidylcholine; 500 nM, 30 min, 37 C [6] was 62%, the Procoagulant Activity left of thromboplastin reconstituted in phosphatidylcholine; 500 nM, 30 min, 37 C [6] was 1.79 U/ml and the inhibition of procoagulant activity of thromboplastin, time course (FIG. 1), 70 min [6] was > 90%.

With “TRLTRKRGLKLATAL [APO B-100 control peptide (3358-3372), apolipoprotein B-100 control peptide purchased from Sigma, reference compound]” the “effect on thromboplastin (in words)” value (thromboplastin [3]; listed as cationic peptide from apolipoprotein B-100 (fragment 3358-3372)) was “had no effect”, the “effect on thromboplastin (in words)” value (thromboplastin [3]; listed as control 15 mer apolipoprotein B-100 (fragment 3358-3372) peptide) was “neither the control 15 mer apolipoprotein B-100 (fragment 3358-3372) peptide nor the chloramphenicol acetyltransferase control protein had any detectable effect” and the “Procoagulant Activity” value [4] was “(3358-3372) (4.68 U/ml)”.

B1: KRAD-98 peptide (recombinant, released with enterokinase) (peptide)
peptide: LKDESLWEKTGLKEFLKTTKQSFDLSVKAQYKKNKHRHSITNPLAVLCEFISQSIKSFDRHFEKNRNNALDFVTKSYNETKIKFDKYKAEKSHDELPR
In the case of B1, the “inhibition of the procoagulant activity of thromboplastin” value (thromboplastin [3]; 45 min incubation) is reported as 95%, the “influence of plasma on the ability to inhibit thromboplastin activity (in words)” value (thromboplastin [7]; plasma included during the incubation prior to assaying, peptide 500 nM) is reported as “did not significantly affect” and the “inhibition of thromboplastin activity in the presence of plasma” value (thromboplastin [7]; plasma present, 37° C., 40 min incubation) is reported as 95%. The “% Inhibition of thromboplastin delipidated and reconstituted in phosphatidylcholine; 500 nM, 30 min, 37 C” value (“% Inhibition … 37 C” for short) [6] was 85%, the “Procoagulant Activity left of thromboplastin reconstituted in phosphatidylcholine; 500 nM, 30 min, 37 C” value (“Procoagulant Activity left” below) [6] was 0.71 U/ml and the “Procoagulant Activity” value [4] was “(0.71 U/ml)”.

In the case of TRLTRKRGLKLATAL [apolipoprotein B-100 control peptide (fragment 3358-3372)], the “% Inhibition … 37 C” value [6] is reported as 0.4% and the “Procoagulant Activity left” value [6] is reported as 4.68 U/ml.

With KAQSKKNKHRHSTT [KRAD-14 peptide (recombinant, released from the biotinylated fusion protein with chymotrypsin)] the “% Inhibition … 37 C” value [6] was 99% and the “Procoagulant Activity left” value [6] was 0.05 U/ml.
